The source of these data is patent publication US20080234216A1.

In this assay the target is Truncated TGF-β type III receptor encoded by partial rat cDNA clone R3-OF (rat) (UniProt P26342). In words: total 125I-TGF-β binding per glass slide of COS cells transfected with the cDNA clone (calculated, data not shown).
Sequence of Truncated TGF-β type III receptor encoded by partial rat cDNA clone R3-OF (rat) (P26342 24-818 L164V limits assumed): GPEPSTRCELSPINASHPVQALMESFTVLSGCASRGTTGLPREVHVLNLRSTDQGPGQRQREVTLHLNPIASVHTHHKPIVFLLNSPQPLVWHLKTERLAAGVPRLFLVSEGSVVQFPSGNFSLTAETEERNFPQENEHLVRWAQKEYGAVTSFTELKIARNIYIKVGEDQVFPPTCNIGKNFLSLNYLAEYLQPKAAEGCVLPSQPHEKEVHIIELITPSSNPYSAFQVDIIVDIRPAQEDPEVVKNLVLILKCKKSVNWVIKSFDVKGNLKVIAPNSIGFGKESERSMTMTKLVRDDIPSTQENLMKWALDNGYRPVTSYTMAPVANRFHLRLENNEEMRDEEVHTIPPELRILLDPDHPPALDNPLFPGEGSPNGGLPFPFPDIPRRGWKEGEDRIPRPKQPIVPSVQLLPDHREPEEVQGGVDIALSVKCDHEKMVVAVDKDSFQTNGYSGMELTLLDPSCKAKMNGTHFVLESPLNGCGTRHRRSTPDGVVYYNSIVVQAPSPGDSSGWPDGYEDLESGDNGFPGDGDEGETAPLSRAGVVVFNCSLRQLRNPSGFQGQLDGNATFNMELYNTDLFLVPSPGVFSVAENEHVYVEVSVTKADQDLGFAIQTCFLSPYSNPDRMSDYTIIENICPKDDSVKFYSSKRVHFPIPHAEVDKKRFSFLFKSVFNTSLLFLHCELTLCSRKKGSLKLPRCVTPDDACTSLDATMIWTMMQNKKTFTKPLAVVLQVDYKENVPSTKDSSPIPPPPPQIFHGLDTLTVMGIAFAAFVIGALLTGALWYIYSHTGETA

Sequence of Recombinant human TGF-β1 (P01137 279-390 limits assumed): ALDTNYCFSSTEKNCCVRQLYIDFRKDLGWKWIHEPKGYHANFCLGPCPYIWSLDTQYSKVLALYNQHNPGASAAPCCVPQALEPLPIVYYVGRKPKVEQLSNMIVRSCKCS

As for “Recombinant human TGF-β1 (from UniProt P01137 279-390) (ligand)”, the fold total 125I-TGF-β binding over mock transfectants is 2 fold.
